B1: Twister Ribozyme (parent)
chain: AACACUGCCAAUGCCGGUCCCAAGCCCGGAUAAAAGUGGAGGGGGCGG

Variants of: B1
Assay: self-cleavage, relative activity (ratio to wild type); higher = more cleavage; co-transcriptional

Q: With A35U G47U as the variant, how does the self-cleavage read?
A: 0.893

Q: Which self-cleavage does the source give for A35U G47A here?
A: 0.899

Q: For G36U G43U, which self-cleavage is on record?
A: 0.15

Q: For U37C G43C, which self-cleavage is on record?
A: 0.102

Q: For U37C G43U, which self-cleavage is on record?
A: 0.106

Q: With U37C G43A as the variant, how does the self-cleavage read?
A: 0.142

Q: Which self-cleavage does the source give for G36C here?
A: 0.691

Q: For G36A, which self-cleavage is on record?
A: 0.843

Q: With G36U as the variant, how does the self-cleavage read?
A: 0.479

Q: Which self-cleavage does the source give for G36A G41U here?
A: 0.131

Q: Which self-cleavage does the source give for G36C G47C here?
A: 0.171

Q: With G36C G47U as the variant, how does the self-cleavage read?
A: 0.376

Q: For U37G G47U, which self-cleavage is on record?
A: 0.724

Q: For G39C G47U, which self-cleavage is on record?
A: 0.163

Q: With G39C G47C as the variant, how does the self-cleavage read?
A: 0.167

Q: With G36C G44C as the variant, how does the self-cleavage read?
A: 0.402

Q: Which self-cleavage does the source give for G36C G44U here?
A: 0.512

Q: For G38A A40C, which self-cleavage is on record?
A: 0.129

Q: With G36C G39A as the variant, how does the self-cleavage read?
A: 0.122

Q: For G36C G39C, which self-cleavage is on record?
A: 0.113

Q: Which self-cleavage does the source give for G36C G39U here?
A: 0.128

Q: Which self-cleavage does the source give for G36U G38C here?
A: 0.286

Q: With G38A G41A as the variant, how does the self-cleavage read?
A: 0.28

Q: For G36C G41C, which self-cleavage is on record?
A: 0.141

Q: For G36C G41U, which self-cleavage is on record?
A: 0.0915

Q: Which self-cleavage does the source give for G36C G41A here?
A: 0.134

Q: Which self-cleavage does the source give for U37G G39A here?
A: 0.126

Q: For G38C G45A, which self-cleavage is on record?
A: 0.736

Q: For G39A G45C, which self-cleavage is on record?
A: 0.234

Q: For G39A G45U, which self-cleavage is on record?
A: 0.231

Q: Which self-cleavage does the source give for G36U G48A here?
A: 0.43

Q: For G36U G48C, which self-cleavage is on record?
A: 0.514

Q: With G39A G43U as the variant, how does the self-cleavage read?
A: 0.134

Q: For G39C G48C, which self-cleavage is on record?
A: 0.161

Q: With G39C G48U as the variant, how does the self-cleavage read?
A: 0.198

Q: Which self-cleavage does the source give for G38C C46A here?
A: 0.791

Q: For G38C C46G, which self-cleavage is on record?
A: 0.801

Q: For G38U C46A, which self-cleavage is on record?
A: 0.794

Q: With G38U G48C as the variant, how does the self-cleavage read?
A: 1.05

Q: With G36A A40C as the variant, how does the self-cleavage read?
A: 0.115

Q: Which self-cleavage does the source give for A35U U37A here?
A: 0.834

Q: For U37A G39C, which self-cleavage is on record?
A: 0.121

Q: With G38U G45A as the variant, how does the self-cleavage read?
A: 0.827

Q: With G38U G45U as the variant, how does the self-cleavage read?
A: 0.707

Q: For G38U G45C, which self-cleavage is on record?
A: 0.407

Q: Which self-cleavage does the source give for G36C G48A here?
A: 0.422

Q: For G36C G48C, which self-cleavage is on record?
A: 0.657

Q: Which self-cleavage does the source give for G36A G47C here?
A: 0.234

Q: With G36C G43C as the variant, how does the self-cleavage read?
A: 0.0794

Q: For G36A G42A, which self-cleavage is on record?
A: 0.141

Q: For U37G G45C, which self-cleavage is on record?
A: 0.268

Q: Which self-cleavage does the source give for U37G G45A here?
A: 0.544

Q: With U37G G45U as the variant, how does the self-cleavage read?
A: 0.47

Q: For G38A G44C, which self-cleavage is on record?
A: 0.932

Q: With G38A G45C as the variant, how does the self-cleavage read?
A: 0.65

Q: For G38A G45U, which self-cleavage is on record?
A: 0.737

Q: With G36A G48A as the variant, how does the self-cleavage read?
A: 0.639

Q: For A35U G45A, which self-cleavage is on record?
A: 1.02

Q: For G36U G41U, which self-cleavage is on record?
A: 0.0887

Q: For G36U G41C, which self-cleavage is on record?
A: 0.114

Q: For G36U G41A, which self-cleavage is on record?
A: 0.124

Q: With G38A G47A as the variant, how does the self-cleavage read?
A: 0.882

Q: Which self-cleavage does the source give for G36C G38U here?
A: 0.116

Q: With A35U G48A as the variant, how does the self-cleavage read?
A: 1.02

Q: With G39A G42U as the variant, how does the self-cleavage read?
A: 0.164

Q: For G39A G42A, which self-cleavage is on record?
A: 0.146

Q: Which self-cleavage does the source give for U37G C46A here?
A: 0.619

Q: For U37A G45A, which self-cleavage is on record?
A: 0.835

Q: For U37A G45U, which self-cleavage is on record?
A: 0.617

Q: With U37C C46U as the variant, how does the self-cleavage read?
A: 0.627

Q: Which self-cleavage does the source give for G39U here?
A: 0.232

Q: Which self-cleavage does the source give for G39C here?
A: 0.158

Q: Which self-cleavage does the source give for G39A here?
A: 0.568

Q: For G36C A40C, which self-cleavage is on record?
A: 0.15

Q: Which self-cleavage does the source give for G36C A40G here?
A: 0.0963

Q: For G36A C46A, which self-cleavage is on record?
A: 0.582

Q: For G36C G42U, which self-cleavage is on record?
A: 0.145

Q: Which self-cleavage does the source give for U37A G43A here?
A: 0.145

Q: Which self-cleavage does the source give for U37A G43C here?
A: 0.149

Q: With U37C G45U as the variant, how does the self-cleavage read?
A: 0.515

Q: With U37A A40U as the variant, how does the self-cleavage read?
A: 0.137

Q: With U37A A40C as the variant, how does the self-cleavage read?
A: 0.127

Q: With U37A A40G as the variant, how does the self-cleavage read?
A: 0.165

Q: Which self-cleavage does the source give for G36A U37G here?
A: 0.32

Q: Which self-cleavage does the source give for G36A U37A here?
A: 0.166

Q: With U37A as the variant, how does the self-cleavage read?
A: 0.883

Q: With U37C as the variant, how does the self-cleavage read?
A: 0.738

Q: With U37G as the variant, how does the self-cleavage read?
A: 0.861

Q: For G38A C46U, which self-cleavage is on record?
A: 0.877

Q: Which self-cleavage does the source give for G38A G39U here?
A: 0.142

Q: Which self-cleavage does the source give for G38A G39A here?
A: 0.4

Q: With G38A G39C as the variant, how does the self-cleavage read?
A: 0.175

Q: For G39A G48C, which self-cleavage is on record?
A: 0.532

Q: For G36U G42U, which self-cleavage is on record?
A: 0.103

Q: For G36A G38C, which self-cleavage is on record?
A: 0.327

Q: For U37C G47U, which self-cleavage is on record?
A: 0.585

Q: For U37C G47A, which self-cleavage is on record?
A: 0.478

Q: Which self-cleavage does the source give for G38A G43U here?
A: 0.195

Q: With A35U G44C as the variant, how does the self-cleavage read?
A: 0.974

Q: For A35U G44U, which self-cleavage is on record?
A: 0.92

Q: Which self-cleavage does the source give for U37C G41C here?
A: 0.087

Q: With U37C G41A as the variant, how does the self-cleavage read?
A: 0.134

Q: Which self-cleavage does the source give for U37C G41U here?
A: 0.126

Q: For G38U G39U, which self-cleavage is on record?
A: 0.0892

Q: Which self-cleavage does the source give for U37A G48U here?
A: 0.811

Q: Which self-cleavage does the source give for G39A G41C here?
A: 0.126

Q: With G38A G48C as the variant, how does the self-cleavage read?
A: 1.04

Q: With G38A G48A as the variant, how does the self-cleavage read?
A: 0.998

Q: For G36A G43A, which self-cleavage is on record?
A: 0.14

Q: For G36A G43U, which self-cleavage is on record?
A: 0.147

Q: With G36C C46U as the variant, how does the self-cleavage read?
A: 0.585

Q: Which self-cleavage does the source give for G39C C46G here?
A: 0.126

Q: Which self-cleavage does the source give for G39C C46A here?
A: 0.13

Q: With G39C G44U as the variant, how does the self-cleavage read?
A: 0.169

Q: Which self-cleavage does the source give for U37A C46A here?
A: 0.844

Q: Which self-cleavage does the source give for G38U G47C here?
A: 0.228

Q: With G38U G47U as the variant, how does the self-cleavage read?
A: 0.813

Q: For G38C G39U, which self-cleavage is on record?
A: 0.164

Q: With G38C G39C as the variant, how does the self-cleavage read?
A: 0.127

Q: Which self-cleavage does the source give for U37G A40U here?
A: 0.128

Q: Which self-cleavage does the source give for U37G A40C here?
A: 0.163

Q: For G36A G45U, which self-cleavage is on record?
A: 0.579

Q: With G36A G45A as the variant, how does the self-cleavage read?
A: 0.714

Q: For G39A G47U, which self-cleavage is on record?
A: 0.238

Q: For G39A G47C, which self-cleavage is on record?
A: 0.137

Q: Which self-cleavage does the source give for G38C A40U here?
A: 0.129

Q: Which self-cleavage does the source give for U37G G48C here?
A: 0.843

Q: For U37G G48A, which self-cleavage is on record?
A: 0.844

Q: For G38C G48U, which self-cleavage is on record?
A: 1.06

Q: For G39A C46G, which self-cleavage is on record?
A: 0.537

Q: With G39A G44A as the variant, how does the self-cleavage read?
A: 0.339

Q: With G36U G45A as the variant, how does the self-cleavage read?
A: 0.4

Q: With G39C G41U as the variant, how does the self-cleavage read?
A: 0.122

Q: For G36U U37A, which self-cleavage is on record?
A: 0.177

Q: For G36U U37C, which self-cleavage is on record?
A: 0.283

Q: For G38U G44U, which self-cleavage is on record?
A: 0.915

Q: For U37C G48C, which self-cleavage is on record?
A: 0.843

Q: For U37C G48U, which self-cleavage is on record?
A: 0.881

Q: Which self-cleavage does the source give for U37C G38C here?
A: 0.742

Q: Which self-cleavage does the source give for U37C G38U here?
A: 0.516

Q: For A35U G42U, which self-cleavage is on record?
A: 0.374

Q: With U37A G47U as the variant, how does the self-cleavage read?
A: 0.702

Q: For U37A G47C, which self-cleavage is on record?
A: 0.292

Q: For G38A G42U, which self-cleavage is on record?
A: 0.133

Q: With G36C G45A as the variant, how does the self-cleavage read?
A: 0.37

Q: With G36U G47A as the variant, how does the self-cleavage read?
A: 0.272

Q: Which self-cleavage does the source give for G36U G47C here?
A: 0.198

Q: Which self-cleavage does the source give for G36U G47U here?
A: 0.412

Q: For G39C G42U, which self-cleavage is on record?
A: 0.144

Q: With G39C G42C as the variant, how does the self-cleavage read?
A: 0.129

Q: Which self-cleavage does the source give for G39C G42A here?
A: 0.148

Q: Which self-cleavage does the source give for G36A G39C here?
A: 0.115

Q: With G36A G39A as the variant, how does the self-cleavage read?
A: 0.195

Q: Which self-cleavage does the source give for G36U A40G here?
A: 0.125

Q: For G39C G43C, which self-cleavage is on record?
A: 0.0898

Q: For G39C G43U, which self-cleavage is on record?
A: 0.112

Q: With U37G G43C as the variant, how does the self-cleavage read?
A: 0.0693

Q: For G38C G42A, which self-cleavage is on record?
A: 0.229

Q: Which self-cleavage does the source give for U37G G38U here?
A: 0.127

Q: For U37G G38A, which self-cleavage is on record?
A: 0.774

Q: Which self-cleavage does the source give for G38C G44C here?
A: 0.853

Q: For G38C G44A, which self-cleavage is on record?
A: 0.826

Q: Which self-cleavage does the source give for G38C G44U here?
A: 1.02

Q: With U37C G39A as the variant, how does the self-cleavage read?
A: 0.219

Q: For U37C G39C, which self-cleavage is on record?
A: 0.0703

Q: With U37G G44C as the variant, how does the self-cleavage read?
A: 0.669

Q: For U37G G44A, which self-cleavage is on record?
A: 0.703

From the RNAGym collection of RNA variant scans (doi:10.7554/elife.80360)
